The source of these data is patent US20160215065A1 (Genentech, published 2016).

“And” between values parts separate entries of the source, which are not always exact repeats. Equal values may be shown once. Read-outs that look alike come from different tables or passages of the source.

Data set [1] concerns T1, internally quenched fluorogenic peptide substrate with P1-arginine.
T1 sequence: IRRSSYSFKK

The subject of data set [2] is T2, internally quenched fluorogenic peptide substrate with P1-methylarginine.
T2 sequence: IRRSSYSFKK

In data set [3] the target is T3, internally quenched fluorogenic peptide substrate with P1-methylarginine.
T3 chain: IRRSSYSFKK

Data set [4] addresses T4, internally quenched fluorogenic peptide substrate with P1-arginine.
T4 chain: IRRSSYSFKK

Data set [5] has as its target T5, mouse active NSP4 (mA) (mouse), Q14B24.
T5 chain: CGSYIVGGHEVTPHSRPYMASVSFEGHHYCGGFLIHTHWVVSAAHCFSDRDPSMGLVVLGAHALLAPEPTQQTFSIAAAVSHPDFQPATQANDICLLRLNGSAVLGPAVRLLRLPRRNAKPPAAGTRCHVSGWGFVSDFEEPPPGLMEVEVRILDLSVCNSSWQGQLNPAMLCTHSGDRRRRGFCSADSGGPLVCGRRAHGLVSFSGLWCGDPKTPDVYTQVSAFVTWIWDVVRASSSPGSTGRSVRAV
Kind of data set: competition phage ELISA (phage IC50); soluble mA-NSP4 against plate-coated NSP4. Conditions: remark: other sources report otherwise.

Data set [6] shares this target. Kind of data set: BLI affinity class in summary table. The settings on record: remark: other sources report otherwise.
For data set [7], the target named is T6, mouse zymogen NSP4 (mZ) (mouse), Q14B24.
T6 chain: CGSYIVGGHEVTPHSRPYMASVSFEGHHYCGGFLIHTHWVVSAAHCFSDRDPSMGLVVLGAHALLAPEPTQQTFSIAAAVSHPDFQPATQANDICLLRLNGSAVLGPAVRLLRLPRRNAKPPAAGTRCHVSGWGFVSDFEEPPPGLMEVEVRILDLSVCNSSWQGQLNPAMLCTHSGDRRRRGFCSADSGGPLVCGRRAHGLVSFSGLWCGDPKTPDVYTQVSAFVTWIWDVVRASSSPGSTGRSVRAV
Kind of data set: BLI affinity class in summary table. Conditions: remark: other sources report otherwise.

The target of data set [8] is T7, recombinant mouse NSP4 (form not stated) (mouse, UniProt Q14B24 40-284, limits assumed).
T7 construct: also called mNSP4; soluble mNSP4
T7 sequence (looked up): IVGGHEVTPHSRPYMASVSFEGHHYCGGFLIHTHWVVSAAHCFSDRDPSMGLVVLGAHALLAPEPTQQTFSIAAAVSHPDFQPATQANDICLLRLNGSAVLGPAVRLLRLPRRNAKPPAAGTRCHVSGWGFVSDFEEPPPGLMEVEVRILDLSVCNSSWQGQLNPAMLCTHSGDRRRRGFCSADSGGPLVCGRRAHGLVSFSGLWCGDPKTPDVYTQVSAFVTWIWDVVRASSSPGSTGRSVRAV
The data set can be described thus: phage competition binding assay (phage IC50); soluble mNSP4 competitor.

The target in data set [9] is T7, recombinant mouse NSP4 (form not stated). Kind of data set: ratio of phage IC50 values against the parental clone 51.WT.

Turning to Factor Xa, the “cleavage of fluorogenic peptide with P1-arginine” value in data set [1] was “factor Xa, with a canonical S1 pocket could only cleave unmodified P1-Arg substrate”. The “cleavage of fluorogenic peptide with P1-methylarginine” value in [2] is reported as “factor Xa, with a canonical S1 pocket could only cleave unmodified P1-Arg substrate”.

B1: human active NSP4 (hA) (protein)
chain: IIGGHEVTPHSRPYMASVRFGGQHHCGGFLLRARWVVSAAHCFSHRDLRTGLVVLGAHVLSTAEPTQQVFGIDALTTHPDYHPMTHANDICLLRLNGSAVLGPAVGLLRPPGRRARPPTAGTRCRVAGWGFVSDFEELPPGLMEAKVRVLDPDVCNSSWKGHLTLTMLCTRSGDSHRRGFCSADSGGPLVCRNRAHGLVSFSGLWCGDPKTPDVYTQVSAFVAWIWDVVRRSSPQPGPLPGTTRPPGEAA
B1: the “cleavage of fluorogenic peptide with P1-methylarginine” value in data set [3] is “NSP4 could indeed cleave after methylarginine”. For the same molecule, the “kcat/KM of fluorogenic peptide cleavage” value in data set [4] is recorded as “WT (BEVS) kcat/KM=1.1×10^4±2.1×10^3 M^-1 s^-1”.

B2: human wild-type NSP4 produced in CHO cells, activated (protein)
chain: IIGGHEVTPHSRPYMASVRFGGQHHCGGFLLRARWVVSAAHCFSHRDLRTGLVVLGAHVLSTAEPTQQVFGIDALTTHPDYHPMTHANDICLLRLNGSAVLGPAVGLLRPPGRRARPPTAGTRCRVAGWGFVSDFEELPPGLMEAKVRVLDPDVCNSSWKGHLTLTMLCTRSGDSHRRGFCSADSGGPLVCRNRAHGLVSFSGLWCGDPKTPDVYTQVSAFVAWIWDVVRRSSPQPGPLPGTTRPPGEAA
Take B2: the “kcat/KM of fluorogenic peptide cleavage” value in data set [4] is on record as “WT (CHO) kcat/KM=7.5×10^3 ±1.1×10^3 M^-1s^-1”.

B3: anti-NSP4 antibody 5-1 (antibody, human IgG1, V domains shown)
VH: EVQLVESGGGLVQPGGSLRLSCAASGFTFSGSGIHWVRQAPGKGLEWVAWISPTGGNTYYADSVKGRFTISADTSKNTAYLQMNSLRAEDTAVYYCAKSLFHNVAFDYWGQGTLVTVSS
VL: DIQMTQSPSSLSASVGDRVTITCRASQDVSTAVAWYQQKPGKAPKLLIYSASFLYSGVPSRFSGSGSGTDFTLTISSLQPEDFATYYCQQSYTTPPTFGQGTKVEIKR
Take B3: in data set [5], the IC50 – broadly, the point on the concentration scale where inhibition reaches its midpoint – was determined as 9.93 nM. In data set [6], the Kd (in general, a measure of binding affinity in units of concentration) is less than 50 nM.

B4: anti-NSP4 antibody 5-2 (antibody, V domains shown)
VH: EVQLVESGGGLVQPGGSLRLSCAASGFTFSNTYISWVRQAPGKGLEWVGFIYPANGATYYADSVKGRFTISADTSKNTAYLQMNSLRAEDTAVYYCARRYRLSFDYWGQGTLVTVSS
VL: DIQMTQSPSSLSASVGDRVTITCRASQDVSTAVAWYQQKPGKAPKLLIYSASFLYSGVPSRFSGSGSGTDFTLTISSLQPEDFATYYCQQSYTTPPTFGQGTKVEIKR
Turning to B4, the IC50 in data set [5] was 25 nM. Besides, the Kd in data set [7] was > 50 nM and < 1000 nM; in [6], less than 50 nM.

B5: anti-NSP4 antibody 5-3 (antibody, V domains shown)
VH: EVQLVESGGGLVQPGGSLRLSCAASGFTFSGNDISWVRQAPGKGLEWVAGISPYGGSTYYADSVKGRFTISADTSKNTAYLQMNSLRAEDTAVYYCARRVSFYSRHAGMDYWGQGTLVTVSS
VL: DIQMTQSPSSLSASVGDRVTITCRASQDVSTAVAWYQQKPGKAPKLLIYSASFLYSGVPSRFSGSGSGTDFTLTISSLQPEDFATYYCQQSYTTPPTFGQGTKVEIKR
Turning to B5, the IC50 in data set [5] was determined as 319 nM. In data set [6], this molecule returned a Kd of less than 50 nM.

B6: anti-NSP4 antibody 5-4 (antibody, V domains shown)
VH: EVQLVESGGGLVQPGGSLRLSCAASGFTFTSYAISWVRQAPGKGLEWVAGISPSNGYTNYADSVKGRFTISADTSKNTAYLQMNSLRAEDTAVYYCARAGRWTHSDIDYWGQGTLVTVSS
VL: DIQMTQSPSSLSASVGDRVTITCRASQDVSTAVAWYQQKPGKAPKLLIYSASFLYSGVPSRFSGSGSGTDFTLTISSLQPEDFATYYCQQSYTTPPTFGQGTKVEIKR
Molecule B6 displayed an IC50 in data set [5] of 60.5 nM. This molecule returned an equilibrium dissociation constant (Kd) in data set [6] of less than 50 nM.

B7: affinity matured anti-NSP4 antibody clone 51.59 (Fab, V domains shown)
VH: EVQLVESGGGLVQPGGSLRLSCAASGFTFSGSGIHWVRQAPGKGLEWVAWISPTGGNTYYADSVKGRFTISADTSKNTAYLQMNSLRAEDTAVYYCARVFFHNVAFDYWGQGTLVTVSS
VL: DIQMTQSPSSLSASVGDRVTITCRASQDVSTAVAWYQQKPGKAPKLLIYSASFLYSGVPSRFSGSGSGTDFTLTISSLQPEDFATYYCQQNFSSPPTFGQGTKVEIKR
In the case of B7, the IC50 in data set [8] worked out at 0.095 nM. For the same molecule, the “Affinity improvement to mNSP4” value in data set [9] came to 196 fold.
